Paper PMC8214912
Like-named read-outs stand apart in the source and are kept apart here.

Experiments:
Assay in all cases: NMR titration
[1] = biological target: T1, N 1-209 (nucleocapsid N-terminal region: N-terminal flank, NTD and SR region) (SARS-CoV-2, UniProt P0DTC9 1-209)
[2] = biological target: T1, N 1-209 (nucleocapsid N-terminal …); remark: listed apart in the source
[3] = biological target: T1, N 1-209 (nucleocapsid N-terminal …); remark: listed apart in the source

Binder | Kd [1] [µM] | Kd [3] [µM] | also measured
UAAUAAC (mixed, 2'-deoxy at terminal nucleotides 1 (dU) and 7 (dC); remainder RNA) [dUAAUAAdC] | 138 ± 12 |  | 
GUGUGUGCCUGU (ssRNA) [GU 12-mer] |  |  | Kd [2]: 6 ± 2 µM
TAATAAC (ssDNA) |  | 110 ± 8 | 
AAUAA (ssRNA) | 189 ± 22 |  | 
GGUGGGAGCCUCUUUUAUGGGGUGACUGCC (structured_RNA) [H25 30-mer] |  | 19.9 ± 4.7 | 
